According to patent US20260055369A1, “METHOD FOR GENERATING CELLS OF THE T CELL LINEAGE WITH ENGINEERING BROADLY REACTIVE HUMAN NOTCH LIGAND” (H. Lee Moffitt Cancer Center and Research Institute, Inc., priority 2022, published 2026):

Columns and labels:
[1] = biological target: T1, endogenous Notch1 (Homo sapiens, UniProt P46531); experiment: Western blot for cleaved Notch1 ICD in U2OS and MCF-7 cells; format: cell-based; details: 50 nM C-terminally anchored, 24 hours
T1 construct: cells expressing endogenous levels of Notch1; endogenous in cells; host or cells: U2OS; MCF-7
T1 sequence (P46531 19-2555): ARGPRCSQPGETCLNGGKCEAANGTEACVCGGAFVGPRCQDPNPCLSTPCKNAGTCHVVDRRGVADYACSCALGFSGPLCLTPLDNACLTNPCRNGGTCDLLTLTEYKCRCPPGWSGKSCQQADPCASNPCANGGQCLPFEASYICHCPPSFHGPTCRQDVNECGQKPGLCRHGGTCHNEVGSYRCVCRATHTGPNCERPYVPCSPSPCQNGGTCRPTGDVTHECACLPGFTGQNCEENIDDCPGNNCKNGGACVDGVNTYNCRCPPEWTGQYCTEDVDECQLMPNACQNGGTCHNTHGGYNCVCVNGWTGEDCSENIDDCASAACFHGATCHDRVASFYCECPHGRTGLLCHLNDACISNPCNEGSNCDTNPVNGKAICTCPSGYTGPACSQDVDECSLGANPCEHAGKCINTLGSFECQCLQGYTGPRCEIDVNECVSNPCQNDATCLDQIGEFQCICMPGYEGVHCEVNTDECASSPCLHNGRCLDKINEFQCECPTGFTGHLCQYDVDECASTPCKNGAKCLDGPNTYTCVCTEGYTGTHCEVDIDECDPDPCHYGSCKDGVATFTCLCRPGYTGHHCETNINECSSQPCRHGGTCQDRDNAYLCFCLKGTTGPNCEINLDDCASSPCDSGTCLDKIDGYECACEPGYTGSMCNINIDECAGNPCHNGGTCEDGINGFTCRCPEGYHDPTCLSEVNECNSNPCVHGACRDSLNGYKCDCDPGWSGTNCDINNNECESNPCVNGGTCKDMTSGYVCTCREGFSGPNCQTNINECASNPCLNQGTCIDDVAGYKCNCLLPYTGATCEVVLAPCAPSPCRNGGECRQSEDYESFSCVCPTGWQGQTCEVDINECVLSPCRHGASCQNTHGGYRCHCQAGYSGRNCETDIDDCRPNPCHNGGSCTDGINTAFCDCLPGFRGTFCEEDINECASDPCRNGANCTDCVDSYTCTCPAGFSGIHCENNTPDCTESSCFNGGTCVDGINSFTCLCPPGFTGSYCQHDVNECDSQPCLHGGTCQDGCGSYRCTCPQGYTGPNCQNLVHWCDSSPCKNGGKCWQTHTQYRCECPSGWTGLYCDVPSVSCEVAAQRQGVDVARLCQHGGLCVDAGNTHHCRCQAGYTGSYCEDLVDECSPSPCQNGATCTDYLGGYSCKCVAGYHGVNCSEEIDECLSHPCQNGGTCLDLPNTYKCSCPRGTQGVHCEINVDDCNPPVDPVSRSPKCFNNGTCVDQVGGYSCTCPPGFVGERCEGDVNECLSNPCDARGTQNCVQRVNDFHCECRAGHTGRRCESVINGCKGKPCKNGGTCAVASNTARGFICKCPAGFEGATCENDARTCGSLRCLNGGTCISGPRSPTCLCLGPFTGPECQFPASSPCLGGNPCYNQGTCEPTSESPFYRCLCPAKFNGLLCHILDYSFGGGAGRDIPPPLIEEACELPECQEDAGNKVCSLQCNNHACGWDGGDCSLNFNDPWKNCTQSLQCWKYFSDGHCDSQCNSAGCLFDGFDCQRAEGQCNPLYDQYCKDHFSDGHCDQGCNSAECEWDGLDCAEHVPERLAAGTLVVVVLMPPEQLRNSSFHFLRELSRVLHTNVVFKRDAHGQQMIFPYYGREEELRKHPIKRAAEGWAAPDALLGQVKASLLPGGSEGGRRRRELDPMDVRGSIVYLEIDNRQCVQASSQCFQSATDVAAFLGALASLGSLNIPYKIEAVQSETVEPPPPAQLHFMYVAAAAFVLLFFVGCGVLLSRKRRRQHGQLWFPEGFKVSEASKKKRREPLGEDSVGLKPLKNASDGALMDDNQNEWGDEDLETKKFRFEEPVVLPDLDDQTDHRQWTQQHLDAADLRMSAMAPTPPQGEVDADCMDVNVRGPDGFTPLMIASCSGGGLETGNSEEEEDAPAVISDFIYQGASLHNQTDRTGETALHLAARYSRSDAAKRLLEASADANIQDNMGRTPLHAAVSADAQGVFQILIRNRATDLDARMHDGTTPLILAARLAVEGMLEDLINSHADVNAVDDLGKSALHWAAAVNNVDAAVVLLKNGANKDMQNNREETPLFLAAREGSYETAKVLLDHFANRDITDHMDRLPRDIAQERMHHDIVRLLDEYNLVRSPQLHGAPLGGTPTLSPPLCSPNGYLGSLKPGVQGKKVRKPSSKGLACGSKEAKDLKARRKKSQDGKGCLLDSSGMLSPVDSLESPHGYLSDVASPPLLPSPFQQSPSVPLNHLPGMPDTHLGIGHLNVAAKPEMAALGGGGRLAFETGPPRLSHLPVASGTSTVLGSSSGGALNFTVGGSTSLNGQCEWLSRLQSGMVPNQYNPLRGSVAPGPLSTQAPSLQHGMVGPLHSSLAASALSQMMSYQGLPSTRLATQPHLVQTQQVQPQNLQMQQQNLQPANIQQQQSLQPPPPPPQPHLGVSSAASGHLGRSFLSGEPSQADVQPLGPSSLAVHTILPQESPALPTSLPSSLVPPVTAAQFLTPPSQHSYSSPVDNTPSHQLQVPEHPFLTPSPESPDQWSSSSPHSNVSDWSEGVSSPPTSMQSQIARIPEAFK
Description: For Notch activation in U2OS and MCF-7 cells, WT DLL4 and Delta^MAX biotinylated ligands were immobilized at 50 nM in 6-well streptavidin-coated plates following a scaled-up protocol of the one described before. After 24 hours of stimulation, cells were lysed in Laemmli […] buffer (40% glycerol, 4% SDS, 250 mM Tris-HCl, 0.02% bromophenol blue, and 20% β-mercaptoethanol). Cell lysates were heated at 100° C. for 5 min, centrifuged at 21,000×g for 10 min at 4° C., and supernatants stored at −20° C. Proteins were separated by SDS-PAGE (12% Mini-PROTEAN TGX Precast Protein Gels, Bio-Rad) and transferred to PVDF membranes using an iBlot2 Gel Transfer Device (Thermo Fisher Scientific). The membranes were blocked in 3% BSA+0.1% TBS-Tween. Primary antibodies were anti-cleaved Notch1 (Val1744 rabbit mAb, Cell Signaling Technology, 1:1,000), and β-Actin (rabbit pAb, Cell Signaling Technology, 1:1,000). Secondary antibody anti-Rabbit IgG conjugated to HRP (Goat mAb, Vector Laboratories, 1:8,000) was used for detection of proteins using SuperSignal West Pico PLUS Chemiluminescent Substrate (Thermo Fisher Scientific). Images were acquired using an Amersham Imager 600 (GE Healthcare), and contrast adjusted with a curves layer.

[2] = tested on: CD8+ T cells; experiment: Co-culture assay for IFNγ in T cells (K32 aAPCs expressing ligand); format: cell-based, human; details: 96 h, P=0.047
Description: Functional assays for human CD8^+ T cells were performed in co-culture with K562 cells expressing human CD32 (K32 cells) generated as described before7. Briefly, cells were γ-irradiated (100Gy) and washed twice with PBS before being loaded with OKT3 (0.0125-0.5 μg/mL, BioXcell) antibody at RT for 10 min. Human CD8^+ T cells were negatively isolated from PBMC and labeled with 5 μM of Cell Trace Violet (Invitrogen) according to manufacturer's specifications. Next, CD8^+ T cells were co-cultured with K32 cells at ratio 1:10 (T cell:K32). The frequency of proliferating T cells was determined after 96 hours by flow cytometry using a CytoFLEX II (Beckman Coulter). Zombie Green (Biolegend) was used for life/dead cell staining to discard dead cells from the analysis. A set of samples were additionally incubated with Golgi stop (BD) at 0.5 μL/well for 5 hours and washed with PBS for detection of intracellular IFNγ using anti-hIFNγ APC antibody (Biolegend). The frequency of IFNγ positive cells was analyzed by flow cytometry (CytoFLEX II, Beckman Coulter). Dead cells were excluded from the analysis by staining with Zombie green (Biolegend). The data represent the mean percentage of proliferating T cells or IFNγ^+ T cells±s.e.m. of four independent biological replicates.

[3] = tested on: Notch3; experiment: U2OS luciferase reporter assay, ligands on streptavidin plates; format: cell-based, human; details: 50 nM immobilized
Chain of Notch3 (Q9UM47 197-505 limits assumed): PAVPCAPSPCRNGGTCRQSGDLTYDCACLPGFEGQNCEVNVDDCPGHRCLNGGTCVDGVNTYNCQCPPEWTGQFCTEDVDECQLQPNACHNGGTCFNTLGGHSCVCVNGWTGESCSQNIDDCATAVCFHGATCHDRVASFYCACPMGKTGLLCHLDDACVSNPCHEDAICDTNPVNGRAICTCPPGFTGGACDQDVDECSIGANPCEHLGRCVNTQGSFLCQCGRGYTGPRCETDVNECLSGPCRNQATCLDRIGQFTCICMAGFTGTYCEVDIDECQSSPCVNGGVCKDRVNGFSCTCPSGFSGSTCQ
Description: For U2OS reporter cells, approximately 5×10E5 cells were plated into 6-well plates (Falcon) and let to adhere overnight at 37° C., 5% CO2 in DMEM media (Cytiva). On day two, media was replaced with serum-free DMEM and cells transfected with luciferase vectors. Cationic lipoplexes were generated for 15 min at room temperature by mixing 10 μL of Lipofectamine 2000 (Invitrogen), 2.5 μg of Gal4-firefly luciferase reporter, and 50 ng of pRL-TK Renilla luciferase vector as internal control (ratio 1:5, Lipo:DNA). On day three, streptavidin plates were coupled with DLL4 ligands like described above using 10-fold serial dilutions starting at 50 nM, and transfected U2OS cells were detached with Trypsin-EDTA, washed with DPBS, and counted in the microscope. Twenty-thousand reporter cells were added to wells using 200 μL of DMEM media containing 2 μg/mL of doxycycline (Sigma) to induce Notch-Gal4 expression. Next, signaling plates were incubated for 24 hours at 37° C. and 5% CO2. On day four, luciferase firefly and Renilla signals were determined with Dual-Glo luciferase assay system (Promega) using a GloMax luminometer (Promega). A luminescence ratio firefly:Renilla was determined for every well and normalized to the signal of a non-related control protein (PA domain of RNF128). Notch activation is represented as the mean fold-change over the control±s.d. of three independent biological replicates.

[4] = tested on: CD8+ T cells; experiment: Quantitative real-time PCR of activation markers in CD8+ T cells; format: cell-based, human; details: K32 loaded with 0.0125 μg/mL OKT3, over four days
Description: Human CD8^+ T cells were co-cultured with K32-DLL4 cells for 96 hours and positively enriched by MACS column (Invitrogen Kit). Total RNA was isolated from CD8^+ T cells using TRIzol (Life Technologies). Reverse transcription reaction was performed using Verso cDNA Synthesis Kit (Thermo Scientific). Quantitative PCR reactions were prepared by using Bio-Rad SYBR green master mix and performed on an Applied Biosystems thermocycler (7900 HT). Relative expression was calculated using the ΔΔCt method and normalized to B2M levels. The data represent the mean quantity of mRNA (in-fold) for different T cell markers±s.e.m. of four independent biological replicates. Pair primers used were: […]

[5] = tested on: Notch1 (EGF6-13); experiment: SPR determination of equilibrium dissociation constants; format: binding, human
Chain of Notch1 (EGF6-13) (P46531 257-526 limits assumed): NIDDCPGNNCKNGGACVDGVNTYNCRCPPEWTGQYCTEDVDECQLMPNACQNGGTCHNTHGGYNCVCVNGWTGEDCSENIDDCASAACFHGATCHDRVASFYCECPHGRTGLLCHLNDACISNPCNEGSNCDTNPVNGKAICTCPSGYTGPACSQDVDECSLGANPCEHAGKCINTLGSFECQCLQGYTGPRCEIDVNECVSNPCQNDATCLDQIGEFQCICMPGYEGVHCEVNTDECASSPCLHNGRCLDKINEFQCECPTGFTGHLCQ
Description: Equilibrium dissociation constants were determined by surface plasmon resonance using a Biacore T200 instrument (GE Healthcare). Approximately 100 resonance units (RU) of biotinylated Notch extracellular fragments (Notch1 (EGF6-13), Notch2 (EGF6-13), Notch3 (EGF5-12), Notch4 (7-12), and mouse Notch1 (EGF6-13)) were immobilized on individual flow cells at 5 μl/min using a streptavidin-coated sensor chip (Series S Sensor chip SA, GE Healthcare). Three-fold serial dilutions of recombinant DLL4 proteins (N-EGF5) starting at 50 μM (WT DLL4), 18 μM (DLL4.v2), and 6 μM (DLL4.v1 and Delta^MAX) were flowed over the chip at 25° C. in SPR buffer (20 mM HEPES pH 7.4, 150 mM NaCl, 1 mM calcium chloride, 0.1% BSA supplemented with 0.005% surfactant P20). Association (“on-rate”) and dissociation (“off-rate”) phases were performed at 10 μl/min for 120 seconds and 300 seconds, respectively. The sensor chip was regenerated after each injection with 30-second washes of 2.25M Magnesium Chloride containing 25% Ethylene Glycol at 50 μL/min. Data collection rate was performed at 10 Hz, and curves were reference-subtracted from a flow cell containing 100 RU of a negative control non-related protein (biotinylated mouse RNF43 PA domain). The maximum RU for each experiment was normalized to a value of 100% and plotted as a function of concentration using Prism 9 software (GraphPad). Steady-state binding and kinetic curves were fitted using the Biacore T200 evaluation software to a 1:1 Langmuir model to determine the KD values.

B1: Delta^MAX: engineered human DLL4 consensus variant with 10 mutations combining DLL4.v1 and DLL4.v2 mutations; sequence matches SEQ ID NO: 4/10 (protein)
chain: SSVFQLQLQEFINERGVLASGRPCEPGCRTFFRVCLKHFQAVVSPGPCTFGTVSTPVLGTNSFAVRDDSSGGGRNPLQLPLNFTWPGTFSLIIEAWHAPGDDLRPEALPPDALISKFAIQGSLAVGQNWLLDEQTSTLTRLRYSYRVICSDNYYGDNCSRLCKKRNDYFGHYVCQPDGNPSCLPGWTGEYCQQPICLSGCHEQNGYCSKPAECLCRPGWQGRLCNECIPHPGCRHGTCSTPWQCLCDEGWGGLYCDQDLNYCTHHSPCKNGATCRNSGPRSYTCTCRPGYTGVDCELELSECDSNPCRNGGSCKDQEDGYHCLCPPGYYGLHCEHSTLSCADSPCFNGGSCRERNQGANYACECPPNFTGSNCE
Notch1 activation (cleaved Notch1 ICD) vs WT DLL4 ([1]; MCF-7 cells): much more potently | Notch1 activation (cleaved Notch1 ICD) vs WT DLL4 ([1]; U2OS cells): much more potently | increase of IFNγ secretion from CD8+ T cells compared with WT DLL4 [2]: 10-15% | increase in Notch3 signaling vs WT DLL4 [3]: 3 fold | Granzyme B mRNA level vs WT DLL4 or mock [4]: increased levels | Hes-4 (Notch target) expression vs WT DLL4 or mock [4]: elevated expression | IFNγ mRNA level vs WT DLL4 or mock [4]: increased levels | enhancement of affinity compared to WT DLL4 ([5]; Notch1): 1,029 fold | Kd ([5]; SPR, 25° C., ligand N-EGF5, read-out: dissociation constant (KD)): 24 nM | off-rate from fitted SPR sensograms ([5]; series DLL4.v1, DLL4.v2, Delta^MAX, FIG. 2C Notch1 EGF6-13): progressive decreases in off-rate | binding affinity compared to WT DLL4 ([5]; stated for all four human Notch receptors (Notch1-4)): enhanced affinity
